For the assay, the target named is phi3T_93 (Bacillus subtilis phage phi3T). Kind of assay: SEC-MALS; 20 µl at 1 mg/ml on Shodex KW-402.5-4F, 100 mM HEPES pH 7.5, 250 mM NaCl, 0.3 ml/min. On the technique in general: Size exclusion chromatography separates by hydrodynamic size, large species first.

What is called stoichiometry N is a count of units in the complex or per binding partner.

Turning to phi3T_93 (natural protein), the stoichiometry N came to 2.
